Measured values as given in the DeepSol protein solubility set.

experiment: soluble on expression in E. coli; label from the status in PepcDB or PDB records

Row | Sequence | soluble on expression in E. coli
1 | MGSDKIHHHHHHMKKTIYKVLVSFYQYVGLGKKFHPSHDTVLIIGGSSNELGIELCETFIEDYHTKVINIDTIDSINGKNARRSEKLYTFISCKDFSDIKCLEESMLYLQNLEIIPTVLINNMQEGIESTLLKEDKFLRLDEESLNEFEKIVRYNLQSVILITKFCLSNIFPKVQAEAQEKAKGFYIVNISSVLTLKPCKSGTHFITSKCGINSFHDGITSELKLKDSNLNVKTLIAYLPSFESEAHWKRLSPSISKHLVHCLLEGRYGDTILESKRSIGDILLITGFKSSFT | not soluble
2 | MGSDKIHHHHHHMKKTSFIYLLLLIALGLSSCQQEKTFKVLQFNIWQEGAVVKGGFDAIADEIVRSNADFVTLSEVRNYHQTRFCDRIVEALQQRGQTYYSFYTEDSGLLSRYPITDSTTVYPLNDDRGSMYKAITHIGDTEVALYTAHLDYRNCAYYDARGYDGNTWDEEPPVTNLDTLLWLNEQSVRDDAIACFLKEAKKDREAGRIVILGGDFNEPSHLDWTEATKDMRDHQGLVVPWHVSVMLEKDGFKDTYREIFPNPVTHPGLTCPADCKDIALEKLVWSPKADDRDRIDFIHYAPFEGLTLTDVCIIGPKGDILRGQRETEETSDPIMTPLGIWPTDHKAVLATFHLK | not soluble
3 | MGSDKIHHHHHHMKKVRAAIVGYGNIGHYVLEALQAAPDFEIAGVVRRAGAENKPEELANYAVVKDIKELEGVEVAILCTPTRSVEKYAKEYLAMGINTVDSFDIHTGIVDLRRTLDATAKEHKAVSIISAGWDPGSDSIVRTMLEAIAPKGITYTNFGPGMSMGHTVAVKAIDGVKAALSMTIPTGTGIHRRMVYIELKDGYKFEEVAAAIKADPYFVNDETHVKLVPSVDALLDMGHGVNLTRKGVSGKTQNQLFEFNMRINNPALTAQVLVCVARASMKQQPGCYTMVEVPVIDLLPGDREEWIGHLV | not soluble
4 | MGSDKIHHHHHHMKKYSLTPAMLEVCKEYNFFSDVSGFMPLTSENIKEIKIGKKFAYSHQDNNKPTHQKLSKIIFENFLSNIPLNQSAIAYVKKKSYFDFIEPHRNNYFFLRIDLKDFFHSISEDLLKRTLSDYFSSESLSETIKQSNIDAIFTFLTVNLKSDSSNVKFLDKKILPIGFPLSPNLANIVFRKTDLLLEKLCDMHGVTYTRYADDMLFSSRGIMEKNLLFRKNNNYKKPYIHSDNFLSEIKYLVSIDGFFINHNKTIKSVNTLSLNGYTISGTNFPDIEGKIRLSNKKTKIIEKVIHEININPDDKVTFEKCFKKEFPKPKYEKNRDNFINNLCTIKINQKLLGYRSYLISIIKFNNKFNCISESSEDKYNTLLSKIENVIKKRIK | not soluble
5 | MGSDKIHHHHHHMKLKYVLYMAAALSLTGCNDSFLERGPQNLNDQSFWISVNDLKAYANAFYGLIPGGVSVLDDTDSDIQVPNDINSFLWGQYVVPTEGGVWQKSNWQNIRNINYFMTHYQSVQAAEADVNIYVAEMRFFRALEYFNKIQLLGDVPWLEVDLNVDSEELYGPKMKRNQVFQKIIEDLDFAIQWLPEAGSEEANRLNKDIARHVKARFCLNEGTHYKYHDELEYASEAEKWLQMAATESDKLITSGRYEIYNTGHPQEDYFNMYRIDDKSDLKEAVLYVDYKTNIREHNMAAAGREAGCGFSKSFVESFLCSDGLPISLSNKYLGDETMRKETANRDPRLKQLILTNDFPTNVTDDLKDSTFVVNEDEFITQHCFTGYRPIKGFNPIYSQALYMKSSFDGIAYRYAETLLINAEAKAELNTITNADLDRTVNQLRDRVGMPHLTVM | not soluble
6 | MGSDKIHHHHHHMKLVDSIYGTYTVEPVISELIDSAPVQRLKGIHQGGACYIVKPSWNVTRFEHSIGVMLLIRKLGGSLEEQIAGLLHDVSHTAFSHVIDYVLAEEEEDYHEQIYEQVIRASEIPHILDKYGFDLERIVLNHSCWTLLEQPSPSLCADRIDYTLRDLYTYGHINKQEVDDFIANLIVVDGIISTSSVAGAEWFVRAYYKEVIDFFLDPLNVYGSSVLTSVLKSAVERKALGLDDFLKTDEELMEQLQRLNDDSIQKQLATLHPHVNVRENENHYHIHKTNKLRLIDPHVYLDGTFQRISSLSKQVKKWNEEAQRRADRGAYVEVLSS | not soluble
7 | MGSDKIHHHHHHMKMTDPLYGTFEIEPVLAELIQSPLVSRLAHVHQGGSSYLVNPLWDLSRLDHSIGVMLFIRKFGGSLEEQIAGLLHDVSHTAFSHVVDYALDFEEEDYHEQIFEDFVKTSTIPAILEKYGYSFEGIFDDISKWKILEQEAPELCADRIDYTLQDLYRHRKISLAEVEEFLQALVMVDGRLYLANIALAEWFVAQYYSEVIDYFYDPLNVYSYEILAEAMRIAFQQETITTADLRLTDTELLAKLNANSDAREKIQLLASAHLEENEADFTYHHKKKMRLINPSILVDGRLIPADELSEKVRKMNDWASERSKHGIYIKATKKSKQ | not soluble
8 | MGSDKIHHHHHHMKNANHRFFLRERLMKLKTTLFGNVYQFKDVKEVLAKANELRSGDVLAGVAAASSQERVAAKQVLSEMTVADIRNNPVIAYEDDCVTRLIQDDVNETAYNQIKNWSISELREYVLSDETSVDDIAFTRKGLTSEVVAAVAKICSNADLIYGAKKMPVIKKANTTIGIPGTFSARLQPNDTRDDVQSIAAQIYEGLSFGVGDAVIGVNPVTDDVENLSRVLDTIYGVIDKFNIPTQGCVLAHVTTQIEAIRRGAPGGLIFQSICGSEKGLKEFGVELAMLDEARAVGAEFNRIAGENCLYFETGQGSALSAGANFGADQVTMEARNYGLARHYDPFIVNTVVGFIGPEYLYNDRQIIRAGLEDHFMGKLSGISMGCDCCYTNHADADQNLNENLMILLATAGCNYIMGMPLGDDIMLNYQTTAFHDTATVRQLLNLRPSPEFERWLESMGIMANGRLTKRAGDPSLFF | not soluble
9 | MGSDKIHHHHHHMKPIIIFFSLFLIPLFADDLKSGFGEEYYKLDIDQKRQIFFIKMNEMFDQSFKKIEQERAFIEAFFKDAYKTGFRTSNQINLEKLITIKNKYRIENLYDFAEYKKRIQKIPKSMGIAQALVESATGTSRFAREANNLFGEWTWGEKGLIPDLRHPDKKHKIKIFDSLQDSVDSYVLNLNRHFAYEKFRDARAKFESEGKEITGLEAIKTLDSYSERKGYYINLITKIIKRYNLEKYDTNSNNT | not soluble
10 | MGSDKIHHHHHHMKRFLFSFLFGLVLLSGCDFEHEIIEILDMIVSEDQSTDVVAPPTSGEATITFFDVGQGDSTLIRSENYTVLVDTGRHDSDAIFTHLEKQQIDQIDLLILTHPHADHIGNADEIVRLYSPEEVWIDGNEATSKTFENVIDALLDSEAEVVEPRAGDVYERGDFLFEIVNPTKLTGDLNNDSIAFRLTYGDVRVVMTGDAEEAAEQEMVASGTDLEADIFKVAHHGSSTSNQPFFLDEIEPTVAIYSAGEDNSYGHPHREVTSLLNERGIDIFGTDIHGTVLITTDGHTYSIQTEH | not soluble
11 | MGSDKIHHHHHHMKRKIIQQLKLWKDNPARKPLILLGARQVGKTWVMKHFGQTEFENVAYINCDVEPLAKELFAADYSIPRILLTLQAITGTKIEAGKTLIVFDELQEVERGLHSLKYFQENAPEYHVMAAGSLLGITLGKGQSFPVGKVNVMHLYPMDFEEFLMAAGETDLCDLLHQPDWEILKILSLKYVDLLRQYYYVGGMPEVVDCFFQHQNLQEVRDKQTEILDAYRRDISKHTTATESIRIGQVLQSLPSQLAKENKKFIYNVLKKGARATEYELAIQWLMDAGLVHKVSRIKELQMPVKFYEDLGAFKLFLLDCGLLGCMTEAPASQMLVGDNVFKEFKGAFTEQFVLQQLVAQGFSPYYWSSDKTPAEIDFVVQTEHRVIPVEVKAEENVRARSMSEYIKNHPDYQLKGLRISMMGYQDQEWMENIPLFAITKFFG | not soluble
12 | MGSDKIHHHHHHMKRSKYQLGRIGRLTIDRIVSIGAYLDGGDTDILLPNRYLPSDAAPGMEVEVFVYHDNEGRLIATTMRPLVEVGQVALLHAVSVTDSGAYMEWGIHKDLFVPFREQTQLIREGGRYFVYAYIDHVSGKIVGSAKLSKHLGNIPPSYSPGDKVSALVYERIDPGYRMIVDHTHWGMIYSDTLPMPLAIGAQVKAFVIRLRDDGKIDLSLKPIGYDRIDSESERLLHMLQRRGGRLPIGDKSSPEEIMQHTGMSKKTFKMAVGMLYRRRLIRITPTAITLNETVSTPEA | not soluble
13 | MGSDKIHHHHHHMKSFRNIMGDSQNLDKRIQKIKQNVINDTDVKHFLEKNRSNITNEMIDEDLNVLQEYKDQQKVYDGHRYDDCPNFVKGHVPELYIENERIKIRYLPCPCKIKHDEERFDSQLITSHHMQRDTLHAKLKDIYMNNRERLDVAMAADQICTAITNDEKVKGLYLYGPFGTGKSFILGAIANQLKSQKISSTIVYLPEFIRTLKGGFKDGSFEKKLQRVREANILMLDDIGAEEVTPWVRDEVIGPLLHYRMVHELPTFFSSNFNYSELEHHLSITRDGTEKTKAARIIERIKTLSTPYYLTGKNFRNN | not soluble
14 | MGSDKIHHHHHHMKSYVLTVSCKSTRGIVAAITGYLAEKGCYISDSSQFDDFQTGLFFMRLTFISQDGAKLEELREGFEPVIKRFEMMMEIRDSEERMKVLLMVSRFGHCLNDLLYRWKIGALPIDIVGVVSNHFDYQKVVVNHDIPFHHIKVTKENKPKAEAQLMDVVEQTGAELIVLARYMQVLSDALCKKMSGKIINIHHSFLPSFKGANPYKQAYERGVKLIGATAHYVTADLDEGPIIEQDIARITHAQSAEDYVSIGRDVESQVLARAVHAHIHHRCFINGNRVVVFPPSPGSYASERMG | not soluble
15 | MGSDKIHHHHHHMKTAEPQTIDDLERWIKSRGITEVECLVPDLSGIPRGKILPARKFLSCLRDRGLRLPESVFTQTVTGEYPEDDPVDIADSDVYLRPDPRTIRVVPWYEEPTAQVINDCFHRDRSEVHCAPRQVLRNILALYEKQGWKPVVAPELEFYLVRINADPDYPLEPPIGRSGRAETGRQAYGIDAVNEFDPLFEDIYDYAEEQNLDLDTLHHESGSAQMEINFLHGDPMELADQVFLFKRTVRQAALRHNVYATFMAKPLAGQPGSAMHLHQSITDAESGRNILVKKNGEDSDLFRWHIGGLQKYLPHCMLMLAPNVNSYRRFLPDQSAPINMHWGHDNRTVSLRVPYADASARRVENRLSGADANPYLAIAASLACGYLGMIEKIEPTAPITGSAYTRAHNLPRHLPDAIERFERARPLHELLNADFVRVYASVKWAEWDAYQHVISSWEREYLLLNV | not soluble
16 | MGSDKIHHHHHHMKTHIFLYPGEGIGPELFESLRAFFSLFNDKLEYHYLASFQDLSSLNKPYYVLCGPFASEQEQTDVLNPLHPLYAHTLVPHDKKGNASILALPLTQKQTTGALKDLSVIAACFDPAHKVVMVQQYQEQPQIWEDAMKAWTKLAFSNHDWKFEDANVLSFIKHSQYSKANQVVSSMEGANVLKALYASIYKSLNRAHTLIEVEDGYITMPMHGHAPDIVGMGIANPYALLMAFCRLLTVAGYEELAQQVENQIESAFYENRDQTTPDQGGVLNTEKYMAMMVECINL | not soluble
17 | MGSDKIHHHHHHMKTLKFKLYQHKRNRHLKRIINAAGVIYNHCIALHKRYYRMWGNHLSCAKLQSHIAKLRKRNLFWQSLGSQAVQDICQRIEKAYQLFFKHNKKGVRPPGFKKVKKYKSFTLKQAGYKFLGSNRVKIGHRVYQFWKSRDIEGTVKTLTIKRTPLGELFMVVVVDNVSQAEIEVKTGKIAGFDFGLKTFLTCSDGTKIESPQFFKQSLNAIKKASRQHSKKLKSSSNRERARKNLVRKYEDISHRRRDWFWKLAHELTDKFDILCFETLNLKGMQRLWGRKISDLAFGEFLQILKWIAKKKNKLVVFIDQWYPSTKTCSGCGHVLEELDLSIREWRCPSCQSVNGRDENASKVICAVGASTVGLGDVSRYETAIAV | not soluble
18 | MGSDKIHHHHHHMKTNYRLHMQQGSDYLKKFLEKHIDLLKKIPLFEGIKSDELEEMLECLGVVDKTYPKDSIIFSVGSEVTSIGIMLKGSAHIIKEDIEGNRNIVAELLPGDLFGEVFACTRLHKSNVTVTTTSSCEVLFIKFKSVTGICSSTCVFHNRLVENMLQLIAEKNILLHNKIELLSRKTTREKLLMYFSKQIEQTGSHQFTIPFSRNEMADFLCVDRSSMSRELGKMRDEGLLSFNKNKFEIFYFKK | not soluble
